Consider two substances from patent US7534761B1, “Charged peptide-amphiphile solutions and self-assembled peptide nanofiber networks formed therefrom” (North Western University, priority 2002, dated 2009).

Square brackets hold non-standard residues; d marks the D form. Ends that are not written are not given here. * marks the point of attachment. Palmitoyl = CCCCCCCCCCCCCCCC(=O)*; pS = N[C@@H](COP(=O)(O)O)C(=O)O

The subject of data set [1] is MC3T3-E1 mouse calvarial osteoblasts. The data set is described as follows: Growth and differentiation of MC3T3-E1 osteoblasts on self assembled nanofibers coated on glass. Type of data set: cell-based. The method, then: Cell culture preparation includes treating glass coverslips overnight in 100% ethanol. […] of SEQ ID NO:1, was spin-coated at 1500 r.p.m. for 30 seconds onto the treated glass cover slips. Samples were dried under vacuum to promote self-assembly on the glass surface. Samples were then immersed in 10% iodine for 15 minutes to cross-link the assembled PA nanofibers. Cross-linked samples were thoroughly, but gently rinsed by immersion in water 3×. Rinsed slides were dried by vacuum desiccation and placed in a 24-well tissue culture well plate. MC3T3-E1 mouse calvarial osteoblasts were plated at 10,000 cells/coverslip in 1 mL of MEM-a culture medium containing 10% fetal bovine serum, 1% penicillin/streptomycin, 30 mM β-glycerolphosphate, and […] ascorbic acid. The medium was exchanged every 3 days.

The nature of data set [2]: Gelation / self assembly of peptide amphiphile solutions, TEM of bulk gels. Type of data set: physicochemical. The method, then:
Synthesis of peptide amphiphile, SEQ ID NO:1, was synthesized with standard Fmoc chemistry on an Applied Biosystems […] automated peptide synthesizer. The peptide was grown from the C terminus to N terminus with the sequence CCCCGGGSS(P)DS(P)D, SEQ ID NO:1, and the N terminus was capped with a 16 carbon fatty acid. The synthesis of the peptide amphiphile, SED ID NO:1, was verified by ESI mass spectroscopy indicating correct molecular weight. […] To confirm the formation of fibers, transmission electron microscopy (TEM) images of these bulk gels were taken and are shown in FIG. 3. Fibers on the order of 5-10 nm in diameter can be seen, as well as globular micelles ranging from 10-15 nm in diameter.

Data set [3] is described as follows: Coassembly of negatively and positively charged peptide amphiphiles. Type of data set: physicochemical. The following applies: 10 mg/mL, mixed with approximately 3 molar equivalents of SEQ ID NO:22. The source says: This example illustrates the self assembly of negatively charged peptide amphiphiles using positively charged peptide amphiphiles, coassembly, to induce nanofiber gel formation. […] Similar approaches may be applied using variations the charged molecules involved.

On to “C16H31O-CCCCGGGSS(P)DS(P)D (Palmitoyl-CCCCGGGS[pS]D[pS]D; not fully specified (C-terminus); cysteine pairing not given here) [SEQ ID NO 1, peptide amphiphile: alkyl tail C16H31O, structural peptide CCCCGGG, functional peptide SS*DS*D]”, for which the “cell adhesion and spreading on nanofiber-coated glass slides” value in data set [1] (MC3T3-E1, 10,000 cells/coverslip, iodine cross-linked nanofibers) is “adhering and spreading”. Besides, the “osteoblastic differentiation, mineral by Von Kossa staining” value in data set [1] (MC3T3-E1, 17 days of culture) is reported as “producing significant mineral”. Further, the “cell layer on self assembled peptide amphiphile coated glass” value in data set [1] (MC3T3-E1, after 12 days (FIG. 4B legend)) is “confluent layer”. The gelation of solution entry in data set [2] (1% and 0.1% solutions, HCl and Ca2+ addition) is “found to gel”. In addition, in data set [2] (bulk gels), the “globular micelle diameter (TEM)” value is listed as 10-15 nm and the “nanofiber diameter (TEM)” value is reported as 5-10 nm.

For the substance “SEQ ID NO:25: peptide amphiphiles having an SSDSD peptide sequence; negatively charged; possibly the SEQ ID NO:1 amphiphile (also: alkyl tail)”, the result of coassembly in data set [3] is given as “self-supporting PA nanofiber gel”.
